Test results: patent US20110262436A1, “TREATMENT METHOD” (Genentech, Inc., priority 2008, published 2011)

Columns and labels:
[1] = PK study, single IV bolus dose in Sprague-Dawley rats; type: in vivo
Method: (§1) PK studies. PK studies were conducted in mice, rats, and cynomolgus monkeys.
Pharmacokinetic Assays for MetMAb in Mouse Serum and Rat Serum. […] A direct ELISA assay was developed for quantification of MetMAb in mouse serum and Sprague-Dawley rat serum. Plates were coated with human c-Met-Fc fusion protein to which samples, standards, and dosing solutions were added. Goat anti-human F(Ab′)2 horseradish peroxidase (HRP) was used for detection. Tetrapethyl benzidine (TMB) peroxidase substrate was added for signal development. The substrate reaction was stopped with phosphoric acid. The plates were read at an absorbance of 450 nm. […] The lower limit of quantitation in the assay was 0.47 ng/mL and the upper limit of quantification was 30 ng/mL. The minimum dilution for nude mouse serum samples was 1/10, resulting in a minimum quantifiable concentration of 4.7 ng/mL, with an indefinite upper limit. The minimum dilution for rat serum samples was 1/50, resulting in a minimum quantifiable concentration of 23.5 ng/mL, with an indefinite upper limit.
(§2) Mouse, Rat, and Cynomolgus Monkey PK data analysis. […] PK parameters were estimated using WinNonlin Enterprise Version 5.0.1 (Pharsight Corp., Mountain View, Calif.). The nominal dose administered for each group was used for modeling. Since a single concentration-time profile for mice was determined for each group, one estimate of each PK parameter was obtained and is reported, along with the standard error (SE) of the fit of each PK parameter. For rats and monkeys, PK parameters are reported as mean (+/−SD).
(§3) For IV administrations, a two-compartment elimination model with IV bolus input and first-order elimination was used to describe the observed data (WinNonlin Model 7). Concentrations were weighted using iterative reweighting (1/ŷ^2) and the Nelder-Mead minimization algorithm. The following equation was used to calculate concentration over time in Model 7: […]

[2] = PK study, single IV dose in cynomolgus monkeys; type: in vivo
Method: as §1
Pharmacokinetic Assay for MetMAb in Cynomolgus Monkey Serum. A direct ELISA was developed to quantitate MetMAb in cynomolgus monkey serum. Plates were coated with a His-tagged c-met extracellular domain fragment, and diluted samples, standards, and controls were added to the coated plates. F(Ab′)2 fragmented, goat anti-human IgG Fc antibodies conjugated to HRP were added for detection. TMB peroxidase was stopped with […]. The plates were read at an absorbance of 450 nm and 620/630 nm.
The lower limit of quantification of the assay was 1.0 ng/ml and the upper limit of quantification was 32.0 ng/ml. The minimum dilution for neat cynomolgus monkey serum samples was 1/50, resulting in a minimum quantifiable concentration of 50 ng/ml, with an indefinite upper limit.
as §2, §3

c-met [3] = target: c-met (Mus musculus, UniProt P16056); assay: Binding to c-met in mice
c-met [4] = target: c-met (Rattus norvegicus, UniProt P97523); assay: Binding to c-met in rats
[5] = test system: KP4 human pancreatic ductal cell carcinoma cells; assay: Dose response study in KP4 xenograft mice; type: in vivo; conditions: from Day 21 effect vs. dose profile
Method: In a dose response study, female nude (nu/nu) mice (age 6-8 weeks) were inoculated subcutaneously (SC) with 5×10^6 KP4 human pancreatic ductal cell carcinoma cells.
In all cases, tumors were measured with calipers throughout the study.

[6] = Safety factor calculation (cynomolgus monkey vs proposed human starting dose); set-up: species or system cynomolgus monkeys; conditions: Planned Phase Ia starting dose 1 mg/kg
Method: Safety Factor Calculation. Safety factor was calculated for Dose, AUC, Cmax as the ratio at the highest non-severely toxic dose (HNSTD) observed in the single or repeat-dose safety study to the proposed phase I starting dose. The equations are:
Safety factor (SF)Dose=DoseCyno/DoseHuman
SFCmax=(Cmax-Cyno)/(Cmax-Human)
For body surface area calculation: The body weight to surface area index is 12 kg/m^2 for cynomolgus monkeys and 37.5 kg/m^2 for humans.

KP4 xenograft = assay: PK/PD model of anti-tumor efficacy in KP4 xenograft mice (MTC); conditions: individual MTC values (n=177) KP4 mice
Method: PK parameter estimates were used as a forcing function to model the pharmacodynamic (PD) endpoint of tumor progression (PD) in KP4 xenograft mice.
Tumor measurements were taken via with calipers, and mice entered the study with tumor volumes of approximately 200 mm^3. Study data up to 21 days from a total of 177 KP4 mice were used in the modeling analysis. Tumor volumes (mm^3) were converted to mass (mg) assuming 1 mm^3=1 mg tumor tissue. A mixed effects PK/pharmacodynamic (PD) model describing anti-tumor efficacy in KP4 xenograft mice was fit to the tumor data using NONMEM software (Double Precision, version V, level 1.0 UCSF, San Francisco Calif.).
MTC is calculated from the differential equation describing tumor mass where (dTM(t)/dt=0)

[7] = Phase I dose-escalation study: safety and tolerability; type: in vivo, humans
Method: Study design. There are two stages to this study, a dose-escalation stage and an expansion stage.
Study treatment. […] Dose levels tested in Phase I were: 1 mg/kg, 4 mg/kg, 10 mg/kg, 20 mg/kg, and 30 mg/kg.

Sequence of c-met (Rattus norvegicus, UniProt P97523) (P97523 25-1382): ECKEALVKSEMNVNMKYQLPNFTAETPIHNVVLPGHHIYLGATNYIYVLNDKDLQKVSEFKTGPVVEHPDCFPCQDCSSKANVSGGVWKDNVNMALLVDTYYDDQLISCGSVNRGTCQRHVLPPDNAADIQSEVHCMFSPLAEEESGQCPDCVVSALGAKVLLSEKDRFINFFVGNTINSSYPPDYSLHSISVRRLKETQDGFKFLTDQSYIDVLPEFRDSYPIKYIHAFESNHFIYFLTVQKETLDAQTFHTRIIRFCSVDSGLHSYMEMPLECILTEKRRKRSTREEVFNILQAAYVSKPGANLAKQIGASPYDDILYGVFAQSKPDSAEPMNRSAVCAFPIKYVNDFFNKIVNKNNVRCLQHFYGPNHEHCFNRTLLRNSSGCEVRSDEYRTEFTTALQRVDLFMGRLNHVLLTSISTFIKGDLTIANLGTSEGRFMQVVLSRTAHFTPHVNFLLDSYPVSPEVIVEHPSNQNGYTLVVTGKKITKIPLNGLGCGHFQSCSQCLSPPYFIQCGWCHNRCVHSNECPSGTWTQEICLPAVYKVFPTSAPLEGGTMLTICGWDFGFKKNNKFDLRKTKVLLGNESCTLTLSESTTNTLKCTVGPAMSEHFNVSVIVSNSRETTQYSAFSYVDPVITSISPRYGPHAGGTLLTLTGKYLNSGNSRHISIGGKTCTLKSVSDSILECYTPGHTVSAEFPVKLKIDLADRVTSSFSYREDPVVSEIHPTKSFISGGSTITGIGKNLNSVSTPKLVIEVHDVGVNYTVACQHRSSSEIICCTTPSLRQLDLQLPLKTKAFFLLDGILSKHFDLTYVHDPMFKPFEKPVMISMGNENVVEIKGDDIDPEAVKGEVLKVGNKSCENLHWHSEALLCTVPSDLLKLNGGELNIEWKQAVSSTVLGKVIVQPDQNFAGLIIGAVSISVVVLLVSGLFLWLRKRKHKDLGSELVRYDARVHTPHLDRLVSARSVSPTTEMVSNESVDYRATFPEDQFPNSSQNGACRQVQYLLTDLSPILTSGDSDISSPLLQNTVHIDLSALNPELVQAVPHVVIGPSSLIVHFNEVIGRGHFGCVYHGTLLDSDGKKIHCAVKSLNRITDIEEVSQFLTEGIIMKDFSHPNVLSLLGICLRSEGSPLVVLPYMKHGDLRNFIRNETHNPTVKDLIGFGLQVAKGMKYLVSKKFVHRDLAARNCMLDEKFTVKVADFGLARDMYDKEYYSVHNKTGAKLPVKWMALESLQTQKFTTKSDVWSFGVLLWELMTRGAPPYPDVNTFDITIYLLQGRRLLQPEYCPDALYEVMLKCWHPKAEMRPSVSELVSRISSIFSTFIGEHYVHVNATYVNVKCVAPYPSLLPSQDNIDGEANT
Sequence of c-met (Mus musculus, UniProt P16056) (P16056 25-1379): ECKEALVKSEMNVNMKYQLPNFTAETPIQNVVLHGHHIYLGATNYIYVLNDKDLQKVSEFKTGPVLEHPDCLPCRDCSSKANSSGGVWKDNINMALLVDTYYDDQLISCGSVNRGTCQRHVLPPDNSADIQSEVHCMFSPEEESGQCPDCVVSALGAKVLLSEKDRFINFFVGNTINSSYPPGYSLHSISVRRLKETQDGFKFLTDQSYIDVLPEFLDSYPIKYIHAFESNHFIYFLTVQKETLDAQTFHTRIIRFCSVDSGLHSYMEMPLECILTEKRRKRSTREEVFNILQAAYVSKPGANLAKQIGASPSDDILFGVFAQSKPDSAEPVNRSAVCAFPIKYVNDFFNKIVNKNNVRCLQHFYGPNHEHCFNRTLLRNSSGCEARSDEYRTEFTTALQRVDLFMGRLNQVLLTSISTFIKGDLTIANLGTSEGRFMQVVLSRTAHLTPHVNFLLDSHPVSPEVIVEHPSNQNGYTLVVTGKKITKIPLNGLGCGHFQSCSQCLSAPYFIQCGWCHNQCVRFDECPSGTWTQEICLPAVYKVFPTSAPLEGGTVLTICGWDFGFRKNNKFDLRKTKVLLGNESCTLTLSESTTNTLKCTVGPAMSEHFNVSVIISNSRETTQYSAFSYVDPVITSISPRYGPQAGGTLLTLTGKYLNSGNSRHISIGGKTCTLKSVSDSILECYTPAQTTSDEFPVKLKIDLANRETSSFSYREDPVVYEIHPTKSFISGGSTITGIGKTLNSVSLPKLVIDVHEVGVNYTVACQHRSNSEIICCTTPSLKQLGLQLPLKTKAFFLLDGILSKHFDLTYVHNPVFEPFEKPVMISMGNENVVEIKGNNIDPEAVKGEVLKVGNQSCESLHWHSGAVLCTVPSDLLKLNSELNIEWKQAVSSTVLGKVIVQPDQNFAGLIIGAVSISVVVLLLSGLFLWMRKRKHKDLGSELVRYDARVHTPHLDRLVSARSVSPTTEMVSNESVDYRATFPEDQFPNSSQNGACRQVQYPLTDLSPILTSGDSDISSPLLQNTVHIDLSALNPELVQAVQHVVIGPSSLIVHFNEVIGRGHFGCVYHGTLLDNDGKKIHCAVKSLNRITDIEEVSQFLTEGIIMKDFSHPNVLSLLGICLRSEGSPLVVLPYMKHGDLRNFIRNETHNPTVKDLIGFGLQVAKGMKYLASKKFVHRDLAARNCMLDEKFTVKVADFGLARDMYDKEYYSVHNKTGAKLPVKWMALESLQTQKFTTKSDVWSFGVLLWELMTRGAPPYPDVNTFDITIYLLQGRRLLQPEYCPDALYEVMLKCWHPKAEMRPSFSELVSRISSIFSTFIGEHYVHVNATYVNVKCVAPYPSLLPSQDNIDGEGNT

MetMAb: recombinant, humanized, monovalent (one-armed) monoclonal antibody directed against human c-met
Terminal Half-Life ([1]; Sprague Dawley rat): 124 h | V1 ([1]; Sprague Dawley rat): 0.0446 L/kg | Vss ([1]; Sprague Dawley rat): 0.107 L/kg | CL ([1]; Sprague Dawley rat (n = 6)): 18.8 mL/day/kg | Terminal Half-Life ([2]; Cynomolgus monkey): 97.2 h | V1 ([2]; Cynomolgus monkey): 0.0338 L/kg | Vss ([2]; Cynomolgus monkey): 0.0703 L/kg | CL ([2]; Cynomolgus monkey (n = 4), linear dose range): 13.4 mL/day/kg | Binding to c-met (c-met [3]): does not bind to c-met | Binding to c-met (c-met [4]): does not bind to c-met | Median efficacious dose (representative) [5]: 7.5 mg/kg | Minimal efficacious dose (representative) [5]: 2.5 mg/kg | Multiple Dose Safety Factor: Body Surface Area [6]: 105 | Multiple Dose Safety Factor: Total Dose [6]: 325 | Single Dose Safety Factor: Body Surface Area [6]: 32 | Single Dose Safety Factor: Single Dose [6]: 100 | MTC, 90% of values (KP4 xenograft): below 110 μg/mL | Median MTC (Minimum Tumorostatic Concentration) (KP4 xenograft): approximately 15 μg/mL | Abdominal pain, drug-related, Grade 1 or 2 (patients) ([7]; Total (n = 21)): 0 | Abdominal pain, drug-related, Grade 3 (patients) ([7]; Total (n = 21)): 1 (4.8%) | Anorexia, drug-related, Grade 1 or 2 (patients) ([7]; Total (n = 21)): 2 | Anorexia, drug-related, Grade 3 (patients) ([7]; Total (n = 21)): 0 | Any adverse event, drug-related, Grade 3 (patients) ([7]; Total (n = 21)): 2 (9.5%) | Diarrhoea, drug-related, Grade 1 or 2 (patients) ([7]; Total (n = 21)): 1 | Diarrhoea, drug-related, Grade 3 (patients) ([7]; Total (n = 21)): 0 | Dysgeusia, drug-related, Grade 1 or 2 (patients) ([7]; Total (n = 21)): 1 | Dysgeusia, drug-related, Grade 3 (patients) ([7]; Total (n = 21)): 0 | Fatigue, drug-related, Grade 1 or 2 (patients) ([7]; Total (n = 21)): 7 | Fatigue, drug-related, Grade 3 (patients) ([7]; Total (n = 21)): 0 | Flushing, drug-related, Grade 1 or 2 (patients) ([7]; Total (n = 21)): 1 | Flushing, drug-related, Grade 3 (patients) ([7]; Total (n = 21)): 0 | Gastroesophageal reflux disease (GERD), drug-related, Grade 1 or 2 (patients) ([7]; Total (n = 21)): 1 | Gastroesophageal reflux disease (GERD), drug-related, Grade 3 (patients) ([7]; Total (n = 21)): 0 | Hypoalbuminaemia, drug-related, Grade 1 or 2 (patients) ([7]; Total (n = 21)): 2 | Hypoalbuminaemia, drug-related, Grade 3 (patients) ([7]; Total (n = 21)): 0 | Muscle spasms, drug-related, Grade 1 or 2 (patients) ([7]; Total (n = 21)): 1 | Muscle spasms, drug-related, Grade 3 (patients) ([7]; Total (n = 21)): 0 | Mydriasis, drug-related, Grade 1 or 2 (patients) ([7]; Total (n = 21)): 1 | Mydriasis, drug-related, Grade 3 (patients) ([7]; Total (n = 21)): 0 | Nausea, drug-related, Grade 1 or 2 (patients) ([7]; Total (n = 21)): 3 | Nausea, drug-related, Grade 3 (patients) ([7]; Total (n = 21)): 0 | Oedema peripheral, drug-related, Grade 1 or 2 (patients) ([7]; Total (n = 21)): 2 | Oedema peripheral, drug-related, Grade 3 (patients) ([7]; Total (n = 21)): 0 | Oral candidiasis, drug-related, Grade 1 or 2 (patients) ([7]; Total (n = 21)): 1 | Oral candidiasis, drug-related, Grade 3 (patients) ([7]; Total (n = 21)): 0 | Paraesthesia oral, drug-related, Grade 1 or 2 (patients) ([7]; Total (n = 21)): 1 | Paraesthesia oral, drug-related, Grade 3 (patients) ([7]; Total (n = 21)): 0 | Pyrexia, drug-related, Grade 1 or 2 (patients) ([7]; Total (n = 21)): 0 | Rash, drug-related, Grade 1 or 2 (patients) ([7]; Total (n = 21)): 1 | Rash, drug-related, Grade 3 (patients) ([7]; Total (n = 21)): 0 | Swelling face, drug-related, Grade 1 or 2 (patients) ([7]; Total (n = 21)): 1 | Swelling face, drug-related, Grade 3 (patients) ([7]; Total (n = 21)): 0 | Vomiting, drug-related, Grade 1 or 2 (patients) ([7]; Total (n = 21)): 3 | Vomiting, drug-related, Grade 3 (patients) ([7]; Total (n = 21)): 0 | Pyrexia, drug-related, Grade 3 (patients) ([7]; Total (n = 21), Dose Limiting Toxicity (DLT)): 1 (4.8%) | Dose limiting toxicity (DLT) ([7]; at 4 mg/kg, doses up to 30 mg/kg): A single dose limiting toxicity (DLT) of Grade 3 pyrexia | Grade 3 toxicity of abdominal pain ([7]; at 20 mg/kg): One | Most commonly reported adverse event ([7]; dose-escalation): fatigue (Grade 1, 2) | Drug-related Grade 4 toxicities ([7]; dose-escalation, 1-30 mg/kg): No drug-related Grade 4 toxicities | Safety and tolerability as a single agent ([7]; doses up to 30 mg/kg, every 3 weeks): safe and generally well tolerated
